# In article PMC3530167:
# Biological target: HLA-DM wild type, biotinylated at a BirA site on the C-terminus of DMα (human) (UniProt P28067)
# Experiment: SPR
# UniProt P28067, sequence (P28067 27-261, chain 1 of 2): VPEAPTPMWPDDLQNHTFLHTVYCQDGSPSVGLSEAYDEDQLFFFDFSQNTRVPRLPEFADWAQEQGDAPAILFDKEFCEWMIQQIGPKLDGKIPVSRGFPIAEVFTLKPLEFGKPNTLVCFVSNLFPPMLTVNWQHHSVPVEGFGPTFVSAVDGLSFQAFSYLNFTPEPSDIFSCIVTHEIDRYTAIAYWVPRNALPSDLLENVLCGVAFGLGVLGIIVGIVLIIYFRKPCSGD
# UniProt P28067, sequence (P28068 19-263, chain 2 of 2, further chain): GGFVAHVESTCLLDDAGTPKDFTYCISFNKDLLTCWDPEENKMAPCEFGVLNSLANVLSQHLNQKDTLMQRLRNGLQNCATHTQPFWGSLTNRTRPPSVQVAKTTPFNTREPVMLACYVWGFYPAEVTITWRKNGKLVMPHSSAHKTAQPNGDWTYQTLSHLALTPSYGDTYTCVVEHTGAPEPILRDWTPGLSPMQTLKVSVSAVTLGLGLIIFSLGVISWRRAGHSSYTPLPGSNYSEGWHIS
substance,measurement,value
"HLA-DR1 with a covalently linked, N-terminally truncated HA-like peptide (P2 to P11) (peptide-MHC)",fold lower affinity at pH 6.5 than at pH 5.5,3 fold
